Consider 125 sequences from the supplement of paper PMC9112550, “Optimization of the antimicrobial peptide Bac7 by deep mutational scanning” (BMC Biology, 2022).

The test system of this data set is Escherichia coli TOP10. In words: shrunken log2 fold change of peptide-encoding DNA abundance (4.5 h post-induction vs induction); higher = less antimicrobial activity (less host growth inhibition). The following applies: time post-induction: 4.5 h; library: site-saturation at positions 5, 18, 19, 20.
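Further: peptides expressed intracellularly from a pBAD plasmid library in pooled LB shake-flask culture, induced with 0.3% L-arabinose, DNA abundance read by NGS, three biological replicates, DESeq2 with apeglm shrinkage.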

Take RRIRDRPPRLPRPRPRPTGDPRP: the “shrunken log2 fold change” value was 0.209.

As for RRIRNRPPRLPRPRPRPTDTPRP, the “shrunken log2 fold change” value was -0.08.

As to RRIRRRPPRLPRPRPRPAREPRP, the “shrunken log2 fold change” value worked out at 0.925.

In the case of RRIRHRPPRLPRPRPRPQDTPRP, the “shrunken log2 fold change” value is -0.374.

For RRIRCRPPRLPRPRPRPWGSPRP, the “shrunken log2 fold change” value was -0.151.

With RRIRLRPPRLPRPRPRPTVIPRP, the “shrunken log2 fold change” value is -0.059.

Consider RRIRPRPPRLPRPRPRPDQNPRP, for which the “shrunken log2 fold change” value is -0.065.

Take RRIRFRPPRLPRPRPRPKGYPRP: the “shrunken log2 fold change” value turned out to be 0.00663.

As to RRIRERPPRLPRPRPRPTFLPRP, the “shrunken log2 fold change” value is -0.724.

With RRIRSRPPRLPRPRPRPHFLPRP, the “shrunken log2 fold change” value was -0.318.

Consider RRIRWRPPRLPRPRPRPSFIPRP, for which the “shrunken log2 fold change” value is -0.545.

In the case of RRIRHRPPRLPRPRPRPSVNPRP, the “shrunken log2 fold change” value is -0.0443.

With RRIRDRPPRLPRPRPRPWFWPRP, the “shrunken log2 fold change” value is -0.0329.

As for RRIRARPPRLPRPRPRPNSFPRP, the “shrunken log2 fold change” value was -0.232.

RRIRFRPPRLPRPRPRPWNEPRP: the “shrunken log2 fold change” value is -0.173.

As to RRIRPRPPRLPRPRPRPKMKPRP, the “shrunken log2 fold change” value is 1.05.

Take RRIRGRPPRLPRPRPRPDCQPRP: the “shrunken log2 fold change” value came out at 0.662.

On to RRIRNRPPRLPRPRPRPQQEPRP, for which the “shrunken log2 fold change” value was -0.124.

For the sequence RRIRIRPPRLPRPRPRPHRVPRP, the “shrunken log2 fold change” value is -0.24.

With RRIRRRPPRLPRPRPRPMKMPRP, the “shrunken log2 fold change” value turned out to be 0.18.

For the sequence RRIRMRPPRLPRPRPRPNCPPRP, the “shrunken log2 fold change” value was -0.0204.

On to RRIRWRPPRLPRPRPRPIRIPRP, for which the “shrunken log2 fold change” value was -0.324.

Regarding RRIRKRPPRLPRPRPRPIPTPRP, the “shrunken log2 fold change” value was found to be 0.397.

For the sequence RRIRARPPRLPRPRPRPIWNPRP, the “shrunken log2 fold change” value is -0.0575.

As for RRIRYRPPRLPRPRPRPWCNPRP, the “shrunken log2 fold change” value was -0.123.

As to RRIRIRPPRLPRPRPRPIKAPRP, the “shrunken log2 fold change” value was -0.38.

For RRIRLRPPRLPRPRPRPREFPRP, the “shrunken log2 fold change” value is 0.463.

As for RRIRQRPPRLPRPRPRPTDHPRP, the “shrunken log2 fold change” value turned out to be 0.0174.

Turning to RRIRYRPPRLPRPRPRPMIKPRP, the “shrunken log2 fold change” value was 0.0227.

For the sequence RRIRIRPPRLPRPRPRPWFEPRP, the “shrunken log2 fold change” value was -0.161.

On to RRIRGRPPRLPRPRPRPESDPRP, for which the “shrunken log2 fold change” value amounted to 2.08.

Turning to RRIRTRPPRLPRPRPRPAAEPRP, the “shrunken log2 fold change” value turned out to be 0.351.

Turning to RRIRIRPPRLPRPRPRPFQRPRP, the “shrunken log2 fold change” value was -0.0107.

For RRIRSRPPRLPRPRPRPCLEPRP, the “shrunken log2 fold change” value is -0.0107.

With RRIRLRPPRLPRPRPRPQRMPRP, the “shrunken log2 fold change” value is -0.124.

As to RRIRSRPPRLPRPRPRPTTKPRP, the “shrunken log2 fold change” value turned out to be 0.0807.

For the sequence RRIRTRPPRLPRPRPRPQYAPRP, the “shrunken log2 fold change” value is -0.317.

Consider RRIRVRPPRLPRPRPRPEKWPRP, for which the “shrunken log2 fold change” value turned out to be 0.0257.

On to RRIRERPPRLPRPRPRPTMQPRP, for which the “shrunken log2 fold change” value turned out to be 0.0612.

Turning to RRIRGRPPRLPRPRPRPRVRPRP, the “shrunken log2 fold change” value turned out to be 0.789.

For RRIRVRPPRLPRPRPRPAYIPRP, the “shrunken log2 fold change” value was -0.738.

For the sequence RRIRFRPPRLPRPRPRPTKHPRP, the “shrunken log2 fold change” value was 0.101.

Regarding RRIRSRPPRLPRPRPRPWRCPRP, the “shrunken log2 fold change” value worked out at 0.0757.

In the case of RRIRVRPPRLPRPRPRPMVTPRP, the “shrunken log2 fold change” value was -0.043.

As to RRIRYRPPRLPRPRPRPQNMPRP, the “shrunken log2 fold change” value is -1.33.

As for RRIRCRPPRLPRPRPRPNVPPRP, the “shrunken log2 fold change” value was -0.154.

With RRIRRRPPRLPRPRPRPQQNPRP, the “shrunken log2 fold change” value stood at 0.0713.

On to RRIRVRPPRLPRPRPRPGMWPRP, for which the “shrunken log2 fold change” value is 0.149.

For RRIRRRPPRLPRPRPRPNPSPRP, the “shrunken log2 fold change” value was determined as 0.215.

In the case of RRIRFRPPRLPRPRPRPFFFPRP, the “shrunken log2 fold change” value worked out at 0.121.

Take RRIRDRPPRLPRPRPRPNGHPRP: the “shrunken log2 fold change” value was -0.252.

RRIRVRPPRLPRPRPRPLAKPRP: the “shrunken log2 fold change” value was -0.252.

With RRIRTRPPRLPRPRPRPTCDPRP, the “shrunken log2 fold change” value stood at 0.0699.

In the case of RRIRARPPRLPRPRPRPDERPRP, the “shrunken log2 fold change” value amounted to 0.423.

For the sequence RRIRCRPPRLPRPRPRPALPPRP, the “shrunken log2 fold change” value was determined as 0.143.

Turning to RRIRQRPPRLPRPRPRPQGWPRP, the “shrunken log2 fold change” value was -0.151.

As for RRIRERPPRLPRPRPRPMLQPRP, the “shrunken log2 fold change” value was -0.161.

Take RRIRLRPPRLPRPRPRPDNGPRP: the “shrunken log2 fold change” value was -0.0567.

RRIRWRPPRLPRPRPRPDIVPRP: the “shrunken log2 fold change” value came out at 0.469.

In the case of RRIRKRPPRLPRPRPRPHVAPRP, the “shrunken log2 fold change” value turned out to be 0.0884.

As for RRIRERPPRLPRPRPRPLQKPRP, the “shrunken log2 fold change” value was -0.113.

Consider RRIRKRPPRLPRPRPRPMMVPRP, for which the “shrunken log2 fold change” value was determined as 0.0826.

For RRIRMRPPRLPRPRPRPEKEPRP, the “shrunken log2 fold change” value is -0.0085.

Regarding RRIRARPPRLPRPRPRPQREPRP, the “shrunken log2 fold change” value worked out at 0.869.

With RRIRNRPPRLPRPRPRPNLLPRP, the “shrunken log2 fold change” value was -0.112.

Consider RRIRKRPPRLPRPRPRPCFHPRP, for which the “shrunken log2 fold change” value was -0.125.

RRIRFRPPRLPRPRPRPNPQPRP: the “shrunken log2 fold change” value is 0.17.

For RRIRWRPPRLPRPRPRPQFIPRP, the “shrunken log2 fold change” value was -0.211.

With RRIRRRPPRLPRPRPRPKQGPRP, the “shrunken log2 fold change” value was -0.079.

With RRIRSRPPRLPRPRPRPIGRPRP, the “shrunken log2 fold change” value amounted to 0.104.

Consider RRIRIRPPRLPRPRPRPNNIPRP, for which the “shrunken log2 fold change” value was -0.937.

RRIRERPPRLPRPRPRPAKRPRP: the “shrunken log2 fold change” value worked out at 0.0249.

For RRIRKRPPRLPRPRPRPGITPRP, the “shrunken log2 fold change” value was determined as 0.266.

Regarding RRIRQRPPRLPRPRPRPEFQPRP, the “shrunken log2 fold change” value is -0.0764.

Turning to RRIRSRPPRLPRPRPRPKICPRP, the “shrunken log2 fold change” value is -0.0675.

In the case of RRIRVRPPRLPRPRPRPIDFPRP, the “shrunken log2 fold change” value is -0.0311.

On to RRIRDRPPRLPRPRPRPAVFPRP, for which the “shrunken log2 fold change” value is -0.0356.

RRIRSRPPRLPRPRPRPIHTPRP: the “shrunken log2 fold change” value is -0.112.

In the case of RRIRVRPPRLPRPRPRPLEWPRP, the “shrunken log2 fold change” value is -0.0248.

In the case of RRIRNRPPRLPRPRPRPQHGPRP, the “shrunken log2 fold change” value is -0.0487.

As to RRIRMRPPRLPRPRPRPGFAPRP, the “shrunken log2 fold change” value is 1.35.

Consider RRIRNRPPRLPRPRPRPVNSPRP, for which the “shrunken log2 fold change” value came out at 0.0303.

For RRIRWRPPRLPRPRPRPKLGPRP, the “shrunken log2 fold change” value is 0.0872.

On to RRIRCRPPRLPRPRPRPRARPRP, for which the “shrunken log2 fold change” value stood at 0.708.

For RRIRCRPPRLPRPRPRPACWPRP, the “shrunken log2 fold change” value was found to be 0.219.

For the sequence RRIRARPPRLPRPRPRPLTYPRP, the “shrunken log2 fold change” value was 0.0247.

RRIRIRPPRLPRPRPRPYQDPRP: the “shrunken log2 fold change” value is -0.0361.

As to RRIRQRPPRLPRPRPRPWALPRP, the “shrunken log2 fold change” value was -0.0992.

For the sequence RRIRDRPPRLPRPRPRPPDTPRP, the “shrunken log2 fold change” value was 0.662.

In the case of RRIRWRPPRLPRPRPRPKIFPRP, the “shrunken log2 fold change” value is -0.249.

Consider RRIRKRPPRLPRPRPRPIIAPRP, for which the “shrunken log2 fold change” value was -0.0395.

Regarding RRIRCRPPRLPRPRPRPCCKPRP, the “shrunken log2 fold change” value is -0.0101.

As for RRIRTRPPRLPRPRPRPGSPPRP, the “shrunken log2 fold change” value was 0.0989.

As to RRIRLRPPRLPRPRPRPGYHPRP, the “shrunken log2 fold change” value was -0.421.

For the sequence RRIRLRPPRLPRPRPRPKGPPRP, the “shrunken log2 fold change” value amounted to 0.28.

In the case of RRIRARPPRLPRPRPRPLVIPRP, the “shrunken log2 fold change” value was -0.152.

As for RRIRYRPPRLPRPRPRPWMHPRP, the “shrunken log2 fold change” value is -0.519.

On to RRIRYRPPRLPRPRPRPFGHPRP, for which the “shrunken log2 fold change” value is -0.15.

Regarding RRIRWRPPRLPRPRPRPNPNPRP, the “shrunken log2 fold change” value stood at 0.055.

For RRIRVRPPRLPRPRPRPDTCPRP, the “shrunken log2 fold change” value is -0.135.

Consider RRIRHRPPRLPRPRPRPGIQPRP, for which the “shrunken log2 fold change” value was -0.277.

Regarding RRIRTRPPRLPRPRPRPDNLPRP, the “shrunken log2 fold change” value was -0.479.

For RRIRKRPPRLPRPRPRPNFNPRP, the “shrunken log2 fold change” value was -0.0705.

RRIRYRPPRLPRPRPRPNRQPRP: the “shrunken log2 fold change” value is -0.053.

As for RRIRRRPPRLPRPRPRPIMQPRP, the “shrunken log2 fold change” value was -0.0408.

As for RRIRCRPPRLPRPRPRPCHDPRP, the “shrunken log2 fold change” value was -0.69.

As to RRIRWRPPRLPRPRPRPHHLPRP, the “shrunken log2 fold change” value is -0.71.

For RRIRDRPPRLPRPRPRPDCNPRP, the “shrunken log2 fold change” value amounted to 0.685.

Consider RRIRTRPPRLPRPRPRPLEGPRP, for which the “shrunken log2 fold change” value was -0.0217.

Take RRIRNRPPRLPRPRPRPHIFPRP: the “shrunken log2 fold change” value is -0.0701.

As for RRIRLRPPRLPRPRPRPISRPRP, the “shrunken log2 fold change” value came to 0.0488.

Take RRIRKRPPRLPRPRPRPKMMPRP: the “shrunken log2 fold change” value came to 0.421.

Take RRIRTRPPRLPRPRPRPDHYPRP: the “shrunken log2 fold change” value is -0.66.

Take RRIRVRPPRLPRPRPRPCRYPRP: the “shrunken log2 fold change” value worked out at 0.0933.

On to RRIRQRPPRLPRPRPRPCGRPRP, for which the “shrunken log2 fold change” value is 0.411.

Regarding RRIRCRPPRLPRPRPRPILWPRP, the “shrunken log2 fold change” value came to 0.0346.

Turning to RRIRSRPPRLPRPRPRPNWYPRP, the “shrunken log2 fold change” value is -0.382.

In the case of RRIRYRPPRLPRPRPRPNPNPRP, the “shrunken log2 fold change” value is -0.735.

RRIRNRPPRLPRPRPRPRSWPRP: the “shrunken log2 fold change” value was 0.201.

Consider RRIRIRPPRLPRPRPRPQNCPRP, for which the “shrunken log2 fold change” value was -0.0145.

As for RRIRWRPPRLPRPRPRPAIMPRP, the “shrunken log2 fold change” value was -0.211.

On to RRIRGRPPRLPRPRPRPSANPRP, for which the “shrunken log2 fold change” value turned out to be 0.858.

Consider RRIRARPPRLPRPRPRPRHQPRP, for which the “shrunken log2 fold change” value stood at 0.178.

As to RRIRERPPRLPRPRPRPVHCPRP, the “shrunken log2 fold change” value was -0.293.

Take RRIRTRPPRLPRPRPRPMYTPRP: the “shrunken log2 fold change” value was -0.156.
